Data: patent US20060253917A1 (published 2006)

T1: OsHOS59 aa 1-100 (Oryza sativa, UniProt Q94LW4 113-212)
T1 construct: bait, Gal4 DBD fusion; also called PN20559; O. sativa Homeobox Protein HOS59, Fragment
T1 sequence: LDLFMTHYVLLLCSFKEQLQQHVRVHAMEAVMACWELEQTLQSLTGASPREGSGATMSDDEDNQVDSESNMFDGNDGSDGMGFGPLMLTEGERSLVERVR

T2: OsCS aa 316-583 (Oryza sativa, UniProt A2Y0X2 316-583)
T2 construct: bait, Gal4 DBD fusion; also called PN19707
T2 sequence: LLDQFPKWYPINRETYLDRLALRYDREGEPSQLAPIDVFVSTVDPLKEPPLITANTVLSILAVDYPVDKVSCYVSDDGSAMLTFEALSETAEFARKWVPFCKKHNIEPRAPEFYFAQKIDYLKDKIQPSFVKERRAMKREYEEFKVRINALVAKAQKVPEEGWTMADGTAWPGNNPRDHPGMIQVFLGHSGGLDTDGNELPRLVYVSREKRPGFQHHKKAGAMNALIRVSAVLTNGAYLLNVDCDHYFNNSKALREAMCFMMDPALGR

T3: OsMADS45 aa 50-198 (Oryza sativa, UniProt P0C5B0 50-198)
T3 construct: bait, Gal4 DBD fusion; also called PN20231; O. sativa MADS box protein MADS45
T3 sequence: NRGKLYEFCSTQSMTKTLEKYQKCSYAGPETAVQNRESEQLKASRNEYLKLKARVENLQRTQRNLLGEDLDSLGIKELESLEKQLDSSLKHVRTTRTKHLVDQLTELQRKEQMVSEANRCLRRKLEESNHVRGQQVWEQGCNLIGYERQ

B1: OsAAG13633 aa 799-951 (other)
chain: IRSLKFEYDNLKILMSTNDSEKHNLASQVLKLRRALESREDVKQNGVKSDEDNHHATSKRIKHDDGTTGSCNVLPSTNRHNANGDCNGHDRRDAAHDQSVKELEILKERNTALEEELKELHGRYSEISLKFAEVEGERQQLVMTVRALKNSLR
notes: prey, AD fusion; also called PN25701; O. sativa Putative Myosin
B2: OsPN23388 aa 229-331 (other)
chain: LKTAKEKGLQRLVHLSSDLARQVATILENAQTFQENRKIGDVPSVNSNSSGVPSTQGEIDEIHQERQKFVEVAKKNVRDRRARRMQSCEVPIHPITPVKLMES
notes: prey, AD fusion; also called Novel Protein PN23388
B3: OsPN23829 aa 2-226 (other)
chain: ALSVEKTSSGREYKVKDLSQADFGRLEIELAEVEMPGLMACRAEFGPSQPFKGARISGSLHMTIQTAVLIETLTALGAEVRWCSCNIFSTQDHAAAAIARDSAAVFAWKGETLEEYWWCTERCLDWGVGGGPDLIVDDGGDATLLIHEGVKAEEEFEKSGKVPDPESTDNAEFKIVLTIIRDGLKSDPSKYRKMKERLVGVSEETTTGVKRLYQMQETGALLFPA
notes: prey, AD fusion; also called Novel Protein PN23829 Putative S-Adenosyl-L-Homocysteine Hydrolase
B4: OsAAK00972 aa 236-350 (other)
chain: AEGGSKGEGVSSNPQESTANAAPEISAAEKQELQNKMAKLMAMLDEVDRKYKHYYHQMQIVVSSFDMVAGSGAAKPYTAVALQTISKHFRCLKDAINDQINVIRKKLGEEESSSG
notes: prey, AD fusion; also called PN23253; O. sativa Putative Homeodomain Protein OsAAK00972
B5: OsBAB07943 aa 525-767 (other)
chain: LADSLNKARSLIHPPVKKPSKLGENLTSLAAVVENEHKRLLARKSIIEKRKEDLERQILEKEKEEEKKRLSVLKKSAEDERIRLLNDVKLREQERIRRQLVEKEKIEAEELLQKQIKEIAKRGGKKPVLQGEVTKEAVMELAMNEQFKERQEMEKKLQKTGKQMDYLERAKRQEEAPLIEQAFQKRLEVEKILHEQEQLREIELSKQHHAGDLQEKNRLSRMLEHKNIFQERIVQRREAEFSR
notes: prey, AD fusion; also called PN23832; O. sativa Putative Eukaryotic Translation Initiation Factor 3 Large Subunit
B6: OsPN29076 aa 1-187 (other)
chain: ERDISMVNSYPPSAFDCKGWNSASIFIYESDEEIQCLLDWLRDYDPREKELKDSILQWQRHFCHQSSSPLVDPPISGPKGEQLMELPNTKAAVILEQKYGLQLDQDTSDLPKKRGKKIKLSSEDRTYRCDCLEPVWPSRYHCLTCHETYLISTEFEGHNDGKCSKIHQSPDESRENDEPKVKVTKSD
notes: prey, AD fusion; also called Novel Protein PN29076, Fragment
B7: OsPN29077 aa 1-242 (other)
chain: VEAQKKIEAAIRQKGIDENWEAALEHNPEAFARVVMLYVDMEVNGVPLKAFVDSGAQSTIISKSCAERCGLLRLLDQRYRGVAIGVGQSEILGRIHVAPIKIGHVFYPCSFTVLDAPNMEFLFGLDMLRKHQCIIDLKDNVLRVGGGEVSVPFLQEKDIPSHIRDEEKLSKLASLSQGAAGESSTAREKTPDAPPRAPTTGAPAVNPPQPQGGGDFEAKVTKLVELGFDRASVIQALKLFNG
notes: prey, AD fusion; also called Novel Protein PN29077, Fragment, Similar to A. thaliana DNA-Damage Inducible Protein DDI1-Like
B8: OsPIP2A aa 123-290 (other)
chain: RKVSLVRAILYIVAQCLGAICGVGLVNAFPNAYFNRYGGGANTLAAGYSKGTGLAAEIIGTFVLVYTVFSATDPKRNARDSHVPVLAPLPIGFAVFMVHLATIPITGTGINPARSIGAAVIFNNEKAWHNHWIFWVGPFVGAAIAAFYHQYILRAGAIKALGSFRSNA
notes: prey, AD fusion; also called PN29098; O. sativa Aquaporin
B9: OsAAB53810 aa 6-145 (other)
chain: IGPWGGNGGSAQDISVPPKKLLGVTIYSSDAIRSIAFNYIGVDGQEYAIGPWGGGESTSTEIKLGSSEQIKEISGTHGPVYDLADIVTYLKIVTSANNTYEAGVPNGKEFSIPLQDSGHVVGFFGRSGTLIDAIGIYVHP
notes: prey, AD fusion; also called PN29086; O. sativa salT Gene Product
B10: OsPN29115 aa 1-188 (other)
chain: VSFPYSPRPAALAAGARASRVSPVVVAAGGGHQRLMGSLTNTQGLRFGVVVARFNEIVTNLLLQGALETFERYSVKKENITVLSVPGSFEIPVAAQKLGKSGKFDANFVHWRCAFRGDTTHYGAVANSAASGVLSAGLSAEIPCIFGVLTCDDMDQALNRAGGKAGNKGAEAALTAIEMASLFQHHLA
notes: prey, AD fusion; also called Novel Protein PN29115, Fragment, Similar to A. thaliana 6,7-Dimethyl-8-Ribityllumazine Synthase Precursor
B11: OsPN29116 aa 1-169 (other)
chain: GRKPVAAQHYNKGDKDGTSTGSRCTSVAWVPEREGIFVVSHSDGNLYVYDKCKDGNTECTFPAIKDPAQLMISHAKSSKSNPIARWHVCQGSINAISFSPDGAYLATVGRDGYLRVFDFSKEQLIFGGKSYYGALLCCTWSSDGKYLLTGGEDDLVQVWSMDDRKIVAW
notes: prey, AD fusion; also called Novel Protein PN29116, Fragment
B12: OsPN29084 aa 1-253 (other)
chain: ESGIFRQILRGKLDLESDPWPSISDSAKDLVRNMLIRDPTKRFTAHEVLCHPWIVDDAVAPDKPIDSAVLSRLKHFSAMNKLKKMALRVIAESLSEEEIGGLKELFKMIDTDNSGTITYDELKNGLKRVGSDLMEPEIQALMDAADIDNSGTIDYGEFLAATLHMNKLEREENLVSAFTFFDKDGSGFITIDELSQACEQFGLSDVHLEDMIKDVDQNNDGQIDYSEFAAMMRKGNAGGANAGGVTSTGGTGR
notes: prey, AD fusion; also called Novel Protein PN29084, Fragment, Similar to Soybean Calcium-Dependent Protein Kinase
B13: OsPN29117 prey clone -7-151 (other)
chain: MLVQRRDGDTGPAVRLRVSHGASFRDVAVPAHSTFGELKGVLTQATGVEPERQRLFFRGKEKSDNEFLHTAGVKDGAKLLLLEKPAPANVEQRAEPVIMDESMMKACEAVGRVRAEVDRLSAKVCDLEKSVFAGRKIEDKDFVVLTELLMM
notes: prey, AD fusion; clone includes a small portion (-7 to 0) of the 5' untranslated region; also called Novel Protein PN29117
B14: OsPN29113 aa 1-92 (other)
chain: CKVSYIDAILGTTVKVPTVDGMVDLKIPSGTQPGTTLVMSKKGVPLLGKSNARGDQLVRVQVEIPKRLSSDERKLIEELANLNKAQTANSRR
notes: prey, AD fusion; also called O. sativa DNAJ Homologue
B15: OsFDRMADS6 aa 115-246 (other)
chain: EDLESLNLKELQQLEQQLENSLKHIRSRKSQLMLESINELQRKEKSLQEENKVLQKELVEKQKVQKQQVQWDQTQPQTSSSSSSFMMREALPTTNISNYPAAAGERIEDVAAGQPQHVRIGLPPWMLSHING
notes: prey, AD fusion; also called PN19766; O. sativa MADS-box protein FDRMADS6
B16: OsMADS18 aa 82-154 (other)
chain: EPNTEDQENWGDEYGILKSKLDALQKSQRQLLGEQLDTLTTKELQQLEHQLEYSLKHIRSKKNQLLFESISEL
notes: prey, AD fusion; also called PN20912
B17: OsMADS15 aa 92-237 (other)
chain: CHEYRKLKAKIETIQKCHKHLMGEDHESLNLKELQQLEQQLESSLKHIISRKSHLMLESISELQKKERSLQEENKALQKELVERQKNVRGQQQVGQWDQTQVQAQAQAQPQAQTSSSSSSMLRDQQALLPPQNICYPPVMMGERND
notes: prey, AD fusion; also called PN20842; O. sativa MADS box protein MADS15
B18: OsMADS18 aa 57-224 (other)
chain: FSSHSSMEGILERYQRYSFDERAVLEPNTEDQENWGDEYGILKSKLDALQKSQRQLLGEQLDTLTTKELQQLEHQLEYSLKHIRSKKNQLLFESISELQKKEKSLKNQNNVLQKLMETEKEKNNAIINTNREEQNGATPSTSSPTPVTAPDPIPTTNNSQSQPRGSGE
notes: prey, AD fusion; also called PN20912; O. sativa MADS box protein MADS18
B19: OsFDRMADS8 aa 104-233 (other)
chain: LDESRRKILGENLEGCSIEELRGLEMKLEKSLHNIRLKKTELLERQIAKLKEKERTLLKDNENLRGKHRNLEAAALVANHMTTTTAPAAWPRDVPMTSSTAGAADAMDVETDLYIGLPGTERSSNRSETG
notes: prey, AD fusion; also called PN20698; O. sativa MADS-box protein FDRMADS8
B20: OsMADS5 aa 113-225 (other)
chain: LLGEDLVPLSLKELEQLENQIEISLMNIRSSKNQQLLDQVFELKRKEQQLQDANKDLKRKIQETSGENMLHISCQDVGPSGHASEANQEFLHHAICDPSLHIGYQAYMDHLNQ
notes: prey, AD fusion; also called PN20770; O. sativa MADS box protein MADS5
B21: OsMADS3 aa 48-177 (other)
chain: FSSRGRLYEYANNSVKSTVERYKKANSDTSNSGTVAEVNAQHYQQESSKLRQQISSLQNANSRTIVGDSINTMSLRDLKQVENRLEKGIAKIRARKNELLYAEVEYMQKREVELQNDNMYLRSKVVENER
notes: prey, AD fusion; also called PN20700; O. sativa MADS box protein MADS3
B22: OsFDRMADS8 aa 63-186 (other)
chain: LQKTIDRYKAYTKDHVNNKTIQQDIQQVKDDTLGLAKKLEALDESRRKILGENLEGCSIEELRGLEMKLEKSLHNIRLKKTELLERQIAKLKEKERTLLKDNENLRGKHRNLEAAALVANHMTT
notes: prey, AD fusion; also called PN20698
B23: OsMADS13 aa 75-263 (other)
chain: ACGSTSGAPLIEVNAQQYYQQESAKLRHQIQMLQNTNKHLVGDNVSNLSLKELKQLESRLEKGIAKIRARKNELLASEINYMAKREIELQNDNMDLRTKIAEEEQQLQQVTVARSAAMELQAAAAAQQQQQNPFAVAAAQLDMKCFFPLNLFEAAAQVQAVAAQRQQIIPTELNLGYHHHLAIPGATAA
notes: prey, AD fusion; also called PN20668; O. sativa MADS box protein MADS13

Biological target: T1, OsHOS59 aa 1-100
Test: Y2H; output trait library
In short: (§1)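 Protein-protein interactions were detected with an automated, high-throughput yeast two-hybrid assay provided by Myriad Genetics Inc. (Salt Lake City, Utah). A bait clone encoding a defined amino-acid fragment of a rice protein was screened against a rice prey library, either the input trait or the output trait library. Prey clones were retrieved, and their encoding sequences were compared by BLAST against databases to identify the interacting proteins.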

Binding result, binds:
B1
B2
B3
B4
B5

Biological target: T2, OsCS aa 316-583
Test: Y2H; output trait library
In short: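 Protein interactions were tested in an automated, high-throughput yeast two-hybrid screen supplied by Myriad Genetics Inc. Fragments of rice proteins, defined by amino-acid range, served as bait against rice prey clone libraries. Interacting prey clones were retrieved from the output trait library. The sequences encoding the retrieved fragments were compared by BLAST analysis against databases to identify the full-length genes. Each value records whether an interaction was detected.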

Binding result, binds:
B6
B7
B8
B9
B10
B11
B12
B13
B14

Biological target: T3, OsMADS45 aa 50-198
Test: Y2H; output trait library
In short: as §1

Binding result, binds:
B15
B16
B17
B18
B19
B20
B21
B22
B23
